Legend:
Assay in all cases: phage ELISA
[1] = target: T1, COVID S1 RBD Fc fusion (Antigen 1) (SARS-CoV-2, UniProt P0DTC2 319-541)
T1 construct: domain: RBD

[2] = target: T2, SARS-CoV-2 S1 (subunit 1) protein (SARS-CoV-2, UniProt P0DTC2 16-685)
T2 construct: also called biotinylated SARS-CoV-2 S1

[3] = target: T3, COVID S1 RBM Fc fusion (Antigen 2) (SARS-CoV-2, UniProt P0DTC2 437-508)
T3 construct: domain: RBM

S1-Fc = S1-Fc (SARS-CoV-2, UniProt P0DTC2 16-685)
[4] = target: COVID S1 RBD Fc fusion (Antigen 1) (SARS-CoV-2, UniProt P0DTC2 319-541)
[5] = target: COVID S1 RBM Fc fusion (Antigen 2) (SARS-CoV-2, UniProt P0DTC2 437-508)

Binder | specificity ELISA, fold over background [1] | specificity ELISA, percent binding relative to Acro S1 [1] | screening ELISA (Avg), fold over background [2] | specificity ELISA, fold over background [3] | specificity ELISA, percent binding relative to Acro S1 [3] | specificity ELISA, fold over background (S1-Fc) | specificity ELISA, percent binding relative to Acro S1 (S1-Fc) | specificity ELISA, fold over background [4] | specificity ELISA, percent binding relative to Acro S1 [4] | specificity ELISA, fold over background [5] | specificity ELISA, percent binding relative to Acro S1 [5]
SARS-CoV-2 variant 1-38 (antibody, V domains shown) VH: EVQLLESGGGLVQPGGSLRLSCAASGITFSSYAMSWVRQAPGKGLEWVSGISGSGGSTYYADSVKGRFTISRDNSKNTLYLQMNSLRAEDTAVYYCAKHGSGTIFGVVIAKYYFDYWGQGTLVTVSS VL: QSALTQPASVSGSPGQSITISCTGTSSDIGSYNLVSWYQQHPGKAPKLMIYEGTKRPSGVSNRFSGSKSGNTASLTISGLQAEDEADYYCCSYAGSRTYVFGGGTKLTVL | 1.5 fold over background | 128% | 20.2 fold over background | 1.2 fold over background | 101% | 0.9 fold over background | 82.8% |  |  |  | 
SARS-CoV-2 variant 1-37 (antibody, V domains shown) VH: EVQLLESGGGLVQPGGSLRLSCAASGFTFTSYAMNWVRQAPGKGLEWVTAISGSGGSTFYADSVKGRFTISRDNSKNTLYLQMNSLRAEDTAVYYCTRPPYGDYGDYWGQGTLVTVSS VL: QSALTQPASVSGSPGQSITISCTGTSSDIGSYNLVSWYQQHPGKAPKLMIYEGTKRPSGVSNRFSGSKSGNTASLTISGLQAEDEADYYCCSYAGSRTYVFGGGTKLTVL | 2 fold over background | 17.7% | 27 fold over background | 1.4 fold over background | 12.3% | 5.4 fold over background | 46.7% |  |  |  | 
SARS-CoV-2 variant 2-15 (antibody, V domains shown) VH: EVQLLESGGGLVQPGGSLRLSCAASGFTFSDFAMAWVRQAPGKGLEWVSAISGSGDITYYADSVKGRFTISRDNSKNTLYLQMNSLRAEDTAVYYCAREADGLHSPWHFDLWGQGTLVTVSS VL: DIQMTQSPSSLSASVGDRVTITCRASQSIDNYLNWYQQKPGKAPKLLIYGVSALQSGVPSRFSGSGSGTDFTLTISSLQPEDFATYYCQQSHSAPLTFGQGTKVEIK |  |  |  |  |  |  |  | 28.1 fold over background | 90.6% | 0.9 fold over background | 3%
SARS-CoV-2 variant 1-26 (antibody, V domains shown) VH: EVQLLESGGGLVQPGGSLRLSCAASGFTFSSYAISWVRQAPGKGLEWVSAISGSGYSTYYADSVKGRFTISRDNSKNTLYLQMNSLRAEDTAVYYCARGAPDSSGYYFQGEVYFDYWGQGTLVTVSS VL: QSALTQPASVSGSPGQSITISCTGTSSDVGGYNLVSWYQQHPGKAPKLMIYEGTKRPSGVSNRFSGSKSGNTASLTISGLQAEDEADYYCCSFVRSSAHVVFGGGTKLTVL | 1.1 fold over background | 76.8% | 19.5 fold over background | 1 fold over background | 74.7% | 1.3 fold over background | 98% |  |  |  | 

— patent US20210395344A1 (TWIST BIOSCIENCE, published 2021)
